# Positions of bridges follow the written chain, without caps; N, C: chain ends. No end group written: not given here.
# B1: ACE-2 binding polypeptide DQNCFAMYCFEF (peptide)
# peptide: DQNCFAMYCFEF
# modifications: not fully specified (N-terminus, C-terminus, bridges); cysteine pairing not given here
# B2: ACE-2 binding polypeptide DDHCEWASYWKWDLCLHD (peptide)
# peptide: DDHCEWASYWKWDLCLHD
# modifications: not fully specified (N-terminus, C-terminus, bridges); cysteine pairing not given here
# B3: ACE-2 binding polypeptide YEDCIGHALFCMTF (peptide)
# peptide: YEDCIGHALFCMTF
# modifications: not fully specified (N-terminus, C-terminus, bridges); cysteine pairing not given here
# B4: ACE-2 binding polypeptide YDNCLGLANLNFCFDF (peptide)
# peptide: YDNCLGLANLNFCFDF
# modifications: not fully specified (N-terminus, C-terminus, bridges); cysteine pairing not given here
# B5: ACE-2 binding polypeptide FSPCKALRHSPWWVCPSG (peptide)
# peptide: FSPCKALRHSPWWVCPSG
# modifications: not fully specified (N-terminus, C-terminus, bridges); cysteine pairing not given here
# B6: ACE-2 binding polypeptide DDDCGWIGFANFHLCLHG (peptide)
# peptide: DDDCGWIGFANFHLCLHG
# modifications: not fully specified (N-terminus, C-terminus, bridges); cysteine pairing not given here
# B7: ACE-2 binding polypeptide EGNCFLIGPWCFEF (peptide)
# peptide: EGNCFLIGPWCFEF
# modifications: not fully specified (N-terminus, C-terminus, bridges); cysteine pairing not given here
# Molecular target: T1, FLAG-tagged ACE-2 target (human, UniProt Q9BYF1 18-740)
# T1 construct: range 1-740; obtained from Human Genome Sciences, Inc; also called FLAG-ACE-2; tagged human ACE-2; not shown: FLAG tag
# T1 sequence (Q9BYF1 18-740 limits assumed): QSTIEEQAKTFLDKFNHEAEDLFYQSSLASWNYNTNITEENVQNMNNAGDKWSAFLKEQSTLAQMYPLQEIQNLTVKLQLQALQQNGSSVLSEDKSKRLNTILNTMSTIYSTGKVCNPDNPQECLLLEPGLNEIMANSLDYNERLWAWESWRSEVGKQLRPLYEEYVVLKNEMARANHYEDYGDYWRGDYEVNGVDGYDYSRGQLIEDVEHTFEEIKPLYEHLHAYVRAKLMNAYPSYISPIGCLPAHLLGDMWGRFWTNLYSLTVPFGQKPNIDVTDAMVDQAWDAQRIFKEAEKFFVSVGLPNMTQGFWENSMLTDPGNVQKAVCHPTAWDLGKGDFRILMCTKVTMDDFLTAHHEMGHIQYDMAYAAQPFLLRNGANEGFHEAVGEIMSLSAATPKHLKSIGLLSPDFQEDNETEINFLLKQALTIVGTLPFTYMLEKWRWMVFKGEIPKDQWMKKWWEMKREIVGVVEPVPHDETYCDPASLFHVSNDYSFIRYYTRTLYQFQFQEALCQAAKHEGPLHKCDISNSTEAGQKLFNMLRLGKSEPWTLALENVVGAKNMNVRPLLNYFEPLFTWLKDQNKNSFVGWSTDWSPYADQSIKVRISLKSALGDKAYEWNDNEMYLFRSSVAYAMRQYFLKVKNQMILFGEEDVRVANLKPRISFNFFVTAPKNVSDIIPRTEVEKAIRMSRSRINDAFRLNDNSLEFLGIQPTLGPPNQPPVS
# Assay: phage ELISA on FLAG-ACE-2
# Description: Phage enriched from the third round of selection were screened by ELISA for strong ACE-2 binders. Immulon 2 96-well plates (Dynatech) were coated with streptavidin for 1 hour at 37° C. and subsequently coated with anti-FLAG antibody for 1 hour at room temperature. Half of the plates were further coated with FLAG-ACE-2 as the target plates, and the other half of the plates were coated with FLAG peptide as background plates. The amount of each protein or peptide coated was 100 ng per well. The coated plates were then incubated for 1 hour at room temperature with 1:2 diluted overnight phage cultures that were made by inoculating phage from individual plaques into bacterial host cells. After being washed 7 times with PBST, the plates were incubated with HRP-conjugated anti-M13 antibody (Pharmacia) for 1 hour at room temperature, washed 5 times, developed with TMB peroxidase substrate solution (Kirkegaad & Perry Laboratories, Gaithersburg, Md.), and read at 630 nm on an ELISA plate reader.
row,Binder,binding result
1,YSGCADMYMFCIDF (not fully specified (bridges); cysteine pairing not given here) [ACE-2 binding polypeptide YSGCADMYMFCIDF],binds
2,HIECEEWGYWCIEM (not fully specified (bridges); cysteine pairing not given here) [ACE-2 binding polypeptide HIECEEWGYWCIEM],binds
3,YFACTNNDSYLFCLDF (not fully specified (bridges); cysteine pairing not given here) [ACE-2 binding polypeptide YFACTNNDSYLFCLDF],binds
4,LYECEWKQFGPVEMCLNF (not fully specified (bridges); cysteine pairing not given here) [ACE-2 binding polypeptide LYECEWKQFGPVEMCLNF],binds
5,NLDCIYLQNHSYCFDF (not fully specified (bridges); cysteine pairing not given here) [ACE-2 binding polypeptide NLDCIYLQNHSYCFDF],binds
6,GGQCGTSYLFCIDF (not fully specified (bridges); cysteine pairing not given here) [ACE-2 binding polypeptide GGQCGTSYLFCIDF],binds
7,B1,binds
8,AWDCEWNLFDSTFFCPGF (not fully specified (bridges); cysteine pairing not given here) [ACE-2 binding polypeptide AWDCEWNLFDSTFFCPGF],binds
9,B2,binds
10,NPECGALFCMEF (not fully specified (bridges); cysteine pairing not given here) [ACE-2 binding polypeptide NPECGALFCMEF],binds
11,SNDCVWLQFWGGDMCFLP (not fully specified (bridges); cysteine pairing not given here) [ACE-2 binding polypeptide SNDCVWLQFWGGDMCFLP],binds
12,HLDCYNLVDNMFCFDF (not fully specified (bridges); cysteine pairing not given here) [ACE-2 binding polypeptide HLDCYNLVDNMFCFDF],binds
13,B3,binds
14,FHDCSWGPWGPWEICTRL (not fully specified (bridges); cysteine pairing not given here) [ACE-2 binding polypeptide FHDCSWGPWGPWEICTRL],binds
15,B4,binds
16,KFECMPSSLFCVDF (not fully specified (bridges); cysteine pairing not given here) [ACE-2 binding polypeptide KFECMPSSLFCVDF],binds
17,WEDCLWIGMMCVEF (not fully specified (bridges); cysteine pairing not given here) [ACE-2 binding polypeptide WEDCLWIGMMCVEF],binds
18,"NDYCTVFTGALFCLDF (disulfide 4-13 (inferred); not fully specified (N-terminus, C-terminus)) [ACE-2 binding polypeptide NDYCTVFTGALFCLDF]",binds
19,DDYCFNISSYSYCFDF (not fully specified (bridges); cysteine pairing not given here) [ACE-2 binding polypeptide DDYCFNISSYSYCFDF],binds

row,Binder,binding result
1,B5,binds
2,"NRECHALFCMDF (disulfide 4-9 (inferred); not fully specified (N-terminus, C-terminus)) [ACE-2 binding polypeptide NRECHALFCMDF]",binds
3,B6,binds
4,NHHCLEFSSFEYCFDF (not fully specified (bridges); cysteine pairing not given here) [ACE-2 binding polypeptide NHHCLEFSSFEYCFDF],binds
5,DNLCMSGGSFDYCFDF (not fully specified (bridges); cysteine pairing not given here) [ACE-2 binding polypeptide DNLCMSGGSFDYCFDF],binds
6,FDDCQTSWFQGFWLCIDD (not fully specified (bridges); cysteine pairing not given here) [ACE-2 binding polypeptide FDDCQTSWFQGFWLCIDD],binds
7,LHDCFIYADYEYCFDF (not fully specified (bridges); cysteine pairing not given here) [ACE-2 binding polypeptide LHDCFIYADYEYCFDF],binds
8,DDVCYSLIMADYCLDF (not fully specified (bridges); cysteine pairing not given here) [ACE-2 binding polypeptide DDVCYSLIMADYCLDF],binds
9,PNQCGVDIWALFCVDF (not fully specified (bridges); cysteine pairing not given here) [ACE-2 binding polypeptide PNQCGVDIWALFCVDF],binds
10,YNFCMLIGERDYCLDF (not fully specified (bridges); cysteine pairing not given here) [ACE-2 binding polypeptide YNFCMLIGERDYCLDF],binds
11,B7,binds
12,DDVCENADFAWLGWCMHF (not fully specified (bridges); cysteine pairing not given here) [ACE-2 binding polypeptide DDVCENADFAWLGWCMHF],binds
13,DFGCNAMFCVEF (not fully specified (bridges); cysteine pairing not given here) [ACE-2 binding polypeptide DFGCNAMFCVEF],binds
14,DDKCFGWAHFCFDF (not fully specified (bridges); cysteine pairing not given here) [ACE-2 binding polypeptide DDKCFGWAHFCFDF],binds
15,NADCEWVNFNHVDLCMWN (not fully specified (bridges); cysteine pairing not given here) [ACE-2 binding polypeptide NADCEWVNFNHVDLCMWN],binds
16,DDDCMMLPLTMFCFDF (not fully specified (bridges); cysteine pairing not given here) [ACE-2 binding polypeptide DDDCMMLPLTMFCFDF],binds
17,NWNCLGTNELQFCLDF (not fully specified (bridges); cysteine pairing not given here) [ACE-2 binding polypeptide NWNCLGTNELQFCLDF],binds
18,GSDCEWVNFTMFQMCISN (not fully specified (bridges); cysteine pairing not given here) [ACE-2 binding polypeptide GSDCEWVNFTMFQMCISN],binds
19,SDYCVGNNAVTYCFDF (not fully specified (bridges); cysteine pairing not given here) [ACE-2 binding polypeptide SDYCVGNNAVTYCFDF],binds
